These results are taken from US20250368745A1 (published 2025).

T1: human IL-18BP (human, UniProt O95998 31-194)
T1 construct: UniProt printed as 095998; also called hIL-18BP
T1 sequence: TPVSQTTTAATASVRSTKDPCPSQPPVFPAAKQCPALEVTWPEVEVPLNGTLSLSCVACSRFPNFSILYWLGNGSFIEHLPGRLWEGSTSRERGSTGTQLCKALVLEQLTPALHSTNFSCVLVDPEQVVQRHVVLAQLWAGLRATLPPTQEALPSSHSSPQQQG

T2: cynomolgus IL-18BP (cynomolgus monkey)
T2 construct: also called cyno IL-18BP; cyIL-18BP
T2 chain: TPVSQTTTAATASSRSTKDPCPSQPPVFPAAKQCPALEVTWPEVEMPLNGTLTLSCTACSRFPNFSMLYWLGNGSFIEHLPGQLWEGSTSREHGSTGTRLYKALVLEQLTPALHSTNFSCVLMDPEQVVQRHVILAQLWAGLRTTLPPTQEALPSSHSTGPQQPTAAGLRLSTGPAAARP

T3: human IL-18BP (interleukin-18 binding protein, isoform A) (human, UniProt O95998 31-194)
T3 sequence: T1 sequence

B1: SA301a HC-I99P (antibody, name in Kabat numbering, V domains shown)
VH: QVQLQESGPGLVKPSQTLSLTCTVSGYSITSDYNSHWIRQPPGKGLEWIGYIHYSGSTNYNPSLKSRVTISRDTSKNQFSLKLSSVTAADTAVYYCARNYGSPYVNYFDYWGQGTLVTVSS
VL: EIVLTQSPATLSLSPGERATLSCSASSSVSYMYWYQQKPGQAPRPLIYRTSNLASGIPARFSGSGSGTDFTLTISSLEPEDFAVYYCQQYHSYPTFGGGTKVEIK
notes: IgG1 kappa
B2: SA301a HC-I99L (antibody, name in Kabat numbering, V domains shown)
VH: B1 VH with P103L
VL: B1 VL
notes: IgG1 kappa
B3: SA301a HC-I99E (antibody, name in Kabat numbering, V domains shown)
VH: B1 VH with P103E
VL: B1 VL
notes: IgG1 kappa
B4: SA301a HC-N100bR (antibody, name in Kabat numbering, V domains shown)
VH: B1 VH with P103I, N106R
VL: B1 VL
notes: IgG1 kappa
B5: SA301a HC-I99D (antibody, name in Kabat numbering, V domains shown)
VH: B1 VH with P103D
VL: B1 VL
notes: IgG1 kappa
B6: SA301a HC-I99A (antibody, name in Kabat numbering, V domains shown)
VH: B1 VH with P103A
VL: B1 VL
notes: IgG1 kappa
B7: SA301a HC-N100bY (antibody, name in Kabat numbering, V domains shown)
VH: B1 VH with P103I, N106Y
VL: B1 VL
notes: IgG1 kappa
B8: SA301a HC-N100bQ (antibody, name in Kabat numbering, V domains shown)
VH: B1 VH with P103I, N106Q
VL: B1 VL
notes: IgG1 kappa
B9: SA301a HC-N100bP (antibody, name in Kabat numbering, V domains shown)
VH: B1 VH with P103I, N106P
VL: B1 VL
notes: IgG1 kappa
B10: SA301a HC-V100aF (antibody, name in Kabat numbering, V domains shown)
VH: B1 VH with P103I, V105F
VL: B1 VL
notes: IgG1 kappa
B11: SA301a HC-N100bM (antibody, name in Kabat numbering, V domains shown)
VH: B1 VH with P103I, N106M
VL: B1 VL
notes: IgG1 kappa
B12: SA301a HC-S54V (antibody, name in Kabat numbering, V domains shown)
VH: B1 VH with S55V, P103I
VL: B1 VL
notes: IgG1 kappa
B13: SA301a HC-S54Y (antibody, name in Kabat numbering, V domains shown)
VH: B1 VH with S55Y, P103I
VL: B1 VL
notes: IgG1 kappa
B14: SA301a HC-Y53H (antibody, name in Kabat numbering, V domains shown)
VH: B1 VH with Y54H, P103I
VL: B1 VL
notes: IgG1 kappa
B15: SA301a HC-Y53S (antibody, name in Kabat numbering, V domains shown)
VH: B1 VH with Y54S, P103I
VL: B1 VL
notes: IgG1 kappa
B16: SA301a HC-S54P (antibody, name in Kabat numbering, V domains shown)
VH: B1 VH with S55P, P103I
VL: B1 VL
notes: IgG1 kappa
B17: SA301a HC-Y53T (antibody, name in Kabat numbering, V domains shown)
VH: B1 VH with Y54T, P103I
VL: B1 VL
notes: IgG1 kappa
B18: SA301a HC-Y53A (antibody, name in Kabat numbering, V domains shown)
VH: B1 VH with Y54A, P103I
VL: B1 VL
notes: IgG1 kappa
B19: SA301a HC-Y53I (antibody, name in Kabat numbering, V domains shown)
VH: B1 VH with Y54I, P103I
VL: B1 VL
notes: IgG1 kappa
B20: SA301a HC-S54Q (antibody, name in Kabat numbering, V domains shown)
VH: B1 VH with S55Q, P103I
VL: B1 VL
notes: IgG1 kappa
B21: SA301a HC-Y53D (antibody, name in Kabat numbering, V domains shown)
VH: B1 VH with Y54D, P103I
VL: B1 VL
notes: IgG1 kappa
B22: SA301a HC-Y53K (antibody, name in Kabat numbering, V domains shown)
VH: B1 VH with Y54K, P103I
VL: B1 VL
notes: IgG1 kappa
B23: SA301a HC-Y53V (antibody, name in Kabat numbering, V domains shown)
VH: B1 VH with Y54V, P103I
VL: B1 VL
notes: IgG1 kappa
B24: SA301a HC-Y53R (antibody, name in Kabat numbering, V domains shown)
VH: B1 VH with Y54R, P103I
VL: B1 VL
notes: IgG1 kappa
B25: SA301a HC-Y53Q (antibody, name in Kabat numbering, V domains shown)
VH: B1 VH with Y54Q, P103I
VL: B1 VL
notes: IgG1 kappa
B26: SA301a HC-Y53G (antibody, name in Kabat numbering, V domains shown)
VH: B1 VH with Y54G, P103I
VL: B1 VL
notes: IgG1 kappa
B27: SA301a HC-S54T (antibody, name in Kabat numbering, V domains shown)
VH: B1 VH with S55T, P103I
VL: B1 VL
notes: IgG1 kappa
B28: SA301a HC-S54R (antibody, name in Kabat numbering, V domains shown)
VH: B1 VH with S55R, P103I
VL: B1 VL
notes: IgG1 kappa
B29: SA301a HC-S54L (antibody, name in Kabat numbering, V domains shown)
VH: B1 VH with S55L, P103I
VL: B1 VL
notes: IgG1 kappa
B30: SA301a HC-Y53L (antibody, name in Kabat numbering, V domains shown)
VH: B1 VH with Y54L, P103I
VL: B1 VL
notes: IgG1 kappa
B31: SA301a HC-S54N (antibody, name in Kabat numbering, V domains shown)
VH: B1 VH with S55N, P103I
VL: B1 VL
notes: IgG1 kappa
B32: SA301a HC-Y53F (antibody, name in Kabat numbering, V domains shown)
VH: B1 VH with Y54F, P103I
VL: B1 VL
notes: IgG1 kappa
B33: SA301a HC-Y53M (antibody, name in Kabat numbering, V domains shown)
VH: B1 VH with Y54M, P103I
VL: B1 VL
notes: IgG1 kappa
B34: SA301a HC-Y53E (antibody, name in Kabat numbering, V domains shown)
VH: B1 VH with Y54E, P103I
VL: B1 VL
notes: IgG1 kappa
B35: SA301a HC-S54M (antibody, name in Kabat numbering, V domains shown)
VH: B1 VH with S55M, P103I
VL: B1 VL
notes: IgG1 kappa
B36: SA301a HC-Y53P (antibody, name in Kabat numbering, V domains shown)
VH: B1 VH with Y54P, P103I
VL: B1 VL
notes: IgG1 kappa
B37: SA304a (antibody, human IgG1, V domains shown)
VH: B1 VH with S35A, G101A, P103I
VL: B1 VL
B38: SA308a (antibody, human IgG1, V domains shown)
VH: B1 VH with S35A, S57A, P103I
VL: B1 VL
B39: SA306a (antibody, human IgG1, V domains shown)
VH: B1 VH with S35N, P103I
VL: B1 VL
B40: SA305a (antibody, human IgG1, V domains shown)
VH: B1 VH with S35A, Y100F, G101A, P103I
VL: B1 VL

Substitutions are numbered along the chain they refer to.

For the first experiment, the target named is T1, human IL-18BP. Nature of the experiment: BLI, apparent KD.
For B1, the Kd was found to be 0.41 nM.
As for B2, the Kd was 0.49 nM.
Same read-out and setting: under B3 stands 1.95 nM.
The same measure, in the same setting: with B4 the figure was 0.25 nM; with B5, 1.01 nM; with B6, 0.51 nM.

Another experiment deals with T2, cynomolgus IL-18BP. Nature of the experiment: BLI, apparent KD. On the technique in general: In BLI a coated tip is dipped into the sample, and binding shifts an interference pattern.
Consider B1, for which the Kd was 0.51 nM.
On to B2, for which the Kd was 0.89 nM.
The same measure, in the same setting: with B7 the figure was 0.47 nM; with B3, 3.98 nM; with B8, 0.42 nM.
Regarding B9, the Kd was 0.11 nM.
Still for that read-out and setting: with B10 the figure was 0.44 nM; with B11, 1.83 nM.
Take B5: the Kd was found to be 1.07 nM.
In the case of B6, the Kd was found to be 0.61 nM.

A further experiment addresses T1, human IL-18BP. Briefly: BLI, apparent KD. The source holds these as a separate data set.
Consider B12, for which the Kd amounted to 0.55 nM.
On the same count and under the same terms, with B13 the figure was 4.66 nM; with B14, 2.41 nM.
Still for that read-out and setting: with B15 the figure was 2.64 nM; with B16, 1.11 nM; with B17, 1.95 nM.
Regarding B18, the Kd turned out to be 2.6 nM.
Regarding B19, the Kd stood at 1.87 nM.
On the same count and under the same terms, under B20 stands 2.31 nM; under B21, 3.2 nM; under B22, 3.16 nM.
With B23, the Kd was 2.16 nM.
On the same count and under the same terms, under B24 stands 7.08 nM.
Consider B25, for which the Kd came out at 1.81 nM.
Turning to B26, the Kd is 1.86 nM.
For the molecule B27, the Kd worked out at 1.14 nM.
Still for that read-out and setting: under B28 stands 4.06 nM.
Turning to B29, the Kd was 2.64 nM.
On the same count and under the same terms, under B30 stands 2.42 nM; under B31, 0.36 nM; under B32, 0.39 nM.
On the same count and under the same terms, under B33 stands 0.4 nM; under B34, 5.06 nM.
Still for that read-out and setting: with B35 the figure was 1.94 nM; with B36, 0.38 nM.

A further experiment addresses T3, human IL-18BP (interleukin-18 binding …). Nature of the experiment: cell-based or functional assay.
In the case of B37, the “EC50 in PBMC Assay 1 (endogenous IL-18BP), IFNγ” value came to 3.1 nM and the “EC50 in PBMC Assay 2 (precomplexed IL-18BP), IFNγ” value amounted to 3 nM.
For B38, the “EC50 in PBMC Assay 1 (endogenous IL-18BP), IFNγ” value is 7.9 nM and the “EC50 in PBMC Assay 2 (precomplexed IL-18BP), IFNγ” value was 2.2 nM.
Take B39: the “EC50 in PBMC Assay 1 (endogenous IL-18BP), IFNγ” value turned out to be 127 nM and the “EC50 in PBMC Assay 2 (precomplexed IL-18BP), IFNγ” value came to 19.7 nM.
The matching figures for B40: 4.4 nM and 0.79 nM.
